# T1: IL-10R1-Fc (UniProt Q13651 22-235, limits assumed)
# T1 sequence (looked up): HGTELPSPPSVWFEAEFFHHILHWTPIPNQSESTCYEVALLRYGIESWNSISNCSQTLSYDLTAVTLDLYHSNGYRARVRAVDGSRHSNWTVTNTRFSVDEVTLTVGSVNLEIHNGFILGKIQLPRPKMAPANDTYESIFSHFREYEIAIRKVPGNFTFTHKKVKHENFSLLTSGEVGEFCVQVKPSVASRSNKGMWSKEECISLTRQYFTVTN
# Biological target: T1, IL-10R1-Fc
# Assay: ELISA, IL-10R1-Fc coated
Binding recovery (>60%) [%],Decreased fold of binding to ligand after Conjugating with S48 [fold],Binder
–,15,"IL-10 Asp144Cys-S48 (ligand, human, UniProt P22301 19-178, looked up, S48 on Cys 144, mature) SPGQGTQSENSCTHFPGNLPNMLRDLRDAFSRVKTFFQMKDQLDNLLLKESLLEDFKGYLGCQALSEMIQFYLEEVMPQAENQDPDIKAHVNSLGENLKTLRLRLRRCHRFLPCENKSKAVEQVKNAFNKLQEKGIYKAMSEFCIFINYIEAYMTMKIRN"
92.1,–,"IL-10 Asp44Cys-R4-11 (ligand, human, UniProt P22301 19-178, looked up, R4-11 on Cys 44, mature) SPGQGTQSENSCTHFPGNLPNMLRDLRDAFSRVKTFFQMKDQLCNLLLKESLLEDFKGYLGCQALSEMIQFYLEEVMPQAENQDPDIKAHVNSLGENLKTLRLRLRRCHRFLPCENKSKAVEQVKNAFNKLQEKGIYKAMSEFDIFINYIEAYMTMKIRN"
–,43,"IL-10 Asp44Cys-S48 (ligand, human, UniProt P22301 19-178, looked up, S48 on Cys 44, mature) SPGQGTQSENSCTHFPGNLPNMLRDLRDAFSRVKTFFQMKDQLCNLLLKESLLEDFKGYLGCQALSEMIQFYLEEVMPQAENQDPDIKAHVNSLGENLKTLRLRLRRCHRFLPCENKSKAVEQVKNAFNKLQEKGIYKAMSEFDIFINYIEAYMTMKIRN"
90.5,–,"IL-10 Asp144Cys-R4-11 (ligand, human, UniProt P22301 19-178, looked up, R4-11 on Cys 144, mature) SPGQGTQSENSCTHFPGNLPNMLRDLRDAFSRVKTFFQMKDQLDNLLLKESLLEDFKGYLGCQALSEMIQFYLEEVMPQAENQDPDIKAHVNSLGENLKTLRLRLRRCHRFLPCENKSKAVEQVKNAFNKLQEKGIYKAMSEFCIFINYIEAYMTMKIRN"
87,–,"IL-10 Gln38Cys-R4-19 (ligand, human, UniProt P22301 19-178, looked up, R4-19 on Cys 38, mature) SPGQGTQSENSCTHFPGNLPNMLRDLRDAFSRVKTFFCMKDQLDNLLLKESLLEDFKGYLGCQALSEMIQFYLEEVMPQAENQDPDIKAHVNSLGENLKTLRLRLRRCHRFLPCENKSKAVEQVKNAFNKLQEKGIYKAMSEFDIFINYIEAYMTMKIRN"
–,52,"IL-10 Gln38Cys-S48 (ligand, human, UniProt P22301 19-178, looked up, S48 on Cys 38, mature) SPGQGTQSENSCTHFPGNLPNMLRDLRDAFSRVKTFFCMKDQLDNLLLKESLLEDFKGYLGCQALSEMIQFYLEEVMPQAENQDPDIKAHVNSLGENLKTLRLRLRRCHRFLPCENKSKAVEQVKNAFNKLQEKGIYKAMSEFDIFINYIEAYMTMKIRN"

# The next lines start with the binder.
Binder,Binding recovery (>60%) [%],Decreased fold of binding to ligand after Conjugating with S48 [fold]
"IL-10 Thr6Cys-R4-7 (ligand, human, UniProt P22301 19-178, looked up, R4-7 on Cys 6, mature) SPGQGCQSENSCTHFPGNLPNMLRDLRDAFSRVKTFFQMKDQLDNLLLKESLLEDFKGYLGCQALSEMIQFYLEEVMPQAENQDPDIKAHVNSLGENLKTLRLRLRRCHRFLPCENKSKAVEQVKNAFNKLQEKGIYKAMSEFDIFINYIEAYMTMKIRN",101,–
"IL-10 Arg27Cys-S48 (ligand, human, UniProt P22301 19-178, looked up, S48 on Cys 27, mature) SPGQGTQSENSCTHFPGNLPNMLRDLCDAFSRVKTFFQMKDQLDNLLLKESLLEDFKGYLGCQALSEMIQFYLEEVMPQAENQDPDIKAHVNSLGENLKTLRLRLRRCHRFLPCENKSKAVEQVKNAFNKLQEKGIYKAMSEFDIFINYIEAYMTMKIRN",–,12
"IL-10 Asn45Cys-R4-18 (ligand, human, UniProt P22301 19-178, looked up, R4-18 on Cys 45, mature) SPGQGTQSENSCTHFPGNLPNMLRDLRDAFSRVKTFFQMKDQLDCLLLKESLLEDFKGYLGCQALSEMIQFYLEEVMPQAENQDPDIKAHVNSLGENLKTLRLRLRRCHRFLPCENKSKAVEQVKNAFNKLQEKGIYKAMSEFDIFINYIEAYMTMKIRN",97.7,–
"IL-10 Asn45Cys-S48 (ligand, human, UniProt P22301 19-178, looked up, S48 on Cys 45, mature) SPGQGTQSENSCTHFPGNLPNMLRDLRDAFSRVKTFFQMKDQLDCLLLKESLLEDFKGYLGCQALSEMIQFYLEEVMPQAENQDPDIKAHVNSLGENLKTLRLRLRRCHRFLPCENKSKAVEQVKNAFNKLQEKGIYKAMSEFDIFINYIEAYMTMKIRN",–,7
"IL-10 Asp25Cys-R4-12 (ligand, human, UniProt P22301 19-178, looked up, R4-12 on Cys 25, mature) SPGQGTQSENSCTHFPGNLPNMLRCLRDAFSRVKTFFQMKDQLDNLLLKESLLEDFKGYLGCQALSEMIQFYLEEVMPQAENQDPDIKAHVNSLGENLKTLRLRLRRCHRFLPCENKSKAVEQVKNAFNKLQEKGIYKAMSEFDIFINYIEAYMTMKIRN",97.1,–
"IL-10 Asn148Cys-R4-18 (ligand, human, UniProt P22301 19-178, looked up, R4-18 (printed R418) on Cys 148, mature) SPGQGTQSENSCTHFPGNLPNMLRDLRDAFSRVKTFFQMKDQLDNLLLKESLLEDFKGYLGCQALSEMIQFYLEEVMPQAENQDPDIKAHVNSLGENLKTLRLRLRRCHRFLPCENKSKAVEQVKNAFNKLQEKGIYKAMSEFDIFICYIEAYMTMKIRN",84.3,–
"IL-10 Asp41Cys-R4-11 (ligand, human, UniProt P22301 19-178, looked up, R4-11 on Cys 41, mature) SPGQGTQSENSCTHFPGNLPNMLRDLRDAFSRVKTFFQMKCQLDNLLLKESLLEDFKGYLGCQALSEMIQFYLEEVMPQAENQDPDIKAHVNSLGENLKTLRLRLRRCHRFLPCENKSKAVEQVKNAFNKLQEKGIYKAMSEFDIFINYIEAYMTMKIRN",95.2,–
"IL-10 Arg159Cys-R4-20 (ligand, human, UniProt P22301 19-178, looked up, R4-20 on Cys 159, mature) SPGQGTQSENSCTHFPGNLPNMLRDLRDAFSRVKTFFQMKDQLDNLLLKESLLEDFKGYLGCQALSEMIQFYLEEVMPQAENQDPDIKAHVNSLGENLKTLRLRLRRCHRFLPCENKSKAVEQVKNAFNKLQEKGIYKAMSEFDIFINYIEAYMTMKICN",99,–
"IL-10 Arg159Cys-S48 (ligand, human, UniProt P22301 19-178, looked up, S48 on Cys 159, mature) SPGQGTQSENSCTHFPGNLPNMLRDLRDAFSRVKTFFQMKDQLDNLLLKESLLEDFKGYLGCQALSEMIQFYLEEVMPQAENQDPDIKAHVNSLGENLKTLRLRLRRCHRFLPCENKSKAVEQVKNAFNKLQEKGIYKAMSEFDIFINYIEAYMTMKICN",–,3
"IL-10 Arg27Cys-R4-20 (ligand, human, UniProt P22301 19-178, looked up, R4-20 on Cys 27, mature) SPGQGTQSENSCTHFPGNLPNMLRDLCDAFSRVKTFFQMKDQLDNLLLKESLLEDFKGYLGCQALSEMIQFYLEEVMPQAENQDPDIKAHVNSLGENLKTLRLRLRRCHRFLPCENKSKAVEQVKNAFNKLQEKGIYKAMSEFDIFINYIEAYMTMKIRN",86.6,–
"IL-10 Asn148Cys-S48 (ligand, human, UniProt P22301 19-178, looked up, S48 on Cys 148, mature) SPGQGTQSENSCTHFPGNLPNMLRDLRDAFSRVKTFFQMKDQLDNLLLKESLLEDFKGYLGCQALSEMIQFYLEEVMPQAENQDPDIKAHVNSLGENLKTLRLRLRRCHRFLPCENKSKAVEQVKNAFNKLQEKGIYKAMSEFDIFICYIEAYMTMKIRN",–,10
"IL-10 Asp28Cys-R4-11 (ligand, human, UniProt P22301 19-178, looked up, R4-11 on Cys 28, mature) SPGQGTQSENSCTHFPGNLPNMLRDLRCAFSRVKTFFQMKDQLDNLLLKESLLEDFKGYLGCQALSEMIQFYLEEVMPQAENQDPDIKAHVNSLGENLKTLRLRLRRCHRFLPCENKSKAVEQVKNAFNKLQEKGIYKAMSEFDIFINYIEAYMTMKIRN",92.3,–
"IL-10 Asp28Cys-S48 (ligand, human, UniProt P22301 19-178, looked up, S48 on Cys 28, mature) SPGQGTQSENSCTHFPGNLPNMLRDLRCAFSRVKTFFQMKDQLDNLLLKESLLEDFKGYLGCQALSEMIQFYLEEVMPQAENQDPDIKAHVNSLGENLKTLRLRLRRCHRFLPCENKSKAVEQVKNAFNKLQEKGIYKAMSEFDIFINYIEAYMTMKIRN",–,30
"IL-10 Asp41Cys-S48 (ligand, human, UniProt P22301 19-178, looked up, S48 on Cys 41, mature) SPGQGTQSENSCTHFPGNLPNMLRDLRDAFSRVKTFFQMKCQLDNLLLKESLLEDFKGYLGCQALSEMIQFYLEEVMPQAENQDPDIKAHVNSLGENLKTLRLRLRRCHRFLPCENKSKAVEQVKNAFNKLQEKGIYKAMSEFDIFINYIEAYMTMKIRN",–,13
